Biological target: the molecule itself
Assay: crystal structure

B1: betaine aldehyde dehydrogenase from Burkholderia pseudomallei (enzyme)
chain: MSVYGLQRLYIAGAHADATSGKTFDTFDPATGELLARVQQASADDVDRAVASAREGQREWAAMTAMQRSRILRRAVELLRERNDALAELEMRDTGKPIAETRAVDIVTGADVIEYYAGLATAIEGLQVPLRPESFVYTRREPLGVCAGIGAWNYPIQIACWKSAPALAAGNAMIFKPSEVTPLSALKLAEIYTEAGVPAGVFNVVQGDGSVGALLSAHPGIAKVSFTGGVETGKKVMSLAGASSLKEVTMELGGKSPLIVFDDADLDRAADIAVTANFFSAGQVCTNGTRVFVQQAVKDAFVERVLARVARIRVGKPSDSDTNFGPLASAAQLDKVLGYIDSGKAEGAKLLAGGARLVNDHFASGQYVAPTVFGDCRDDMRIVREEIFGPVMSILSFETEDEAIARANATDYGLAAGVVTENLSRAHRAIHRLEAGICWINTWGESPAEMPVGGYKQSGVGRENGITTLEHYTRIKSVQVELGRYQPVF
notes: also called BpBADH; BpBADH-His; not shown: His6, C-terminal, kept
binding result: binds
